Experimental data from US20170355766A1 (Xencor, published 2017).

T1: FcγRIIaR (human, UniProt P12318)
T1 construct: recombinant receptor protein with 6xHis and GST tags; also called R131 FcγRIIa
T1 sequence (receptor, looked up): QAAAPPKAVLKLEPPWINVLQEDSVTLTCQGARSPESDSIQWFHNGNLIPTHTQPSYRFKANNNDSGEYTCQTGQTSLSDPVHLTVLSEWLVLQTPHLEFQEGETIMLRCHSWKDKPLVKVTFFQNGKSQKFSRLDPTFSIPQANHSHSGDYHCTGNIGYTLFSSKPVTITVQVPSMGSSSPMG

T2: human FcγRIIb receptor protein (R&D Systems) (human, UniProt P31994 46-217)
T2 construct: Analyte injected over antibodies captured on a protein A/G chip (Biacore); also called CD32b
T2 sequence (looked up): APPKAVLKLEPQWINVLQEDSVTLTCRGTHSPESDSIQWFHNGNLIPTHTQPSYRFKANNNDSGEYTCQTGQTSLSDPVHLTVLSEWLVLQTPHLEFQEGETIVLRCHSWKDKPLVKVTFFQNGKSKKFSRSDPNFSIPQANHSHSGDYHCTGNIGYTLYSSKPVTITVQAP


Key:
[1] = target: T1, FcγRIIaR; assay: SPR (Biacore)
[2] = target: T2, human FcγRIIb receptor protein (R&D …); assay: SPR (Biacore)

Binder | Fold FcγRIIaR [1] | Fold FcγRIIb [2]
G236V (antibody, human IgG1, kappa, HuAM4G7 IgG1 Fc variant) heavy: not shown light: DIVMTQSPATLSLSPGERATLSCRSSKSLQNVNGNTYLYWFQQKPGQSPQLLIYRMSNLNSGVPDRFSGSGSGTEFTLTISSLEPEDFAVYYCMQHLEYPITFGAGTKLEIKRTVAAPSVFIFPPSDEQLKSGTASVVCLLNNFYPREAKVQWKVDNALQSGNSQESVTEQDSKDSTYSLSSTLTLSKADYEKHKVYACEVTHQGLSSPVTKSFNRGEC | 0.106 fold | –
S267D/H268E (antibody, human IgG1, kappa, HuAM4G7 IgG1 Fc variant) heavy: not shown light: DIVMTQSPATLSLSPGERATLSCRSSKSLQNVNGNTYLYWFQQKPGQSPQLLIYRMSNLNSGVPDRFSGSGSGTEFTLTISSLEPEDFAVYYCMQHLEYPITFGAGTKLEIKRTVAAPSVFIFPPSDEQLKSGTASVVCLLNNFYPREAKVQWKVDNALQSGNSQESVTEQDSKDSTYSLSSTLTLSKADYEKHKVYACEVTHQGLSSPVTKSFNRGEC | – | 17.8 fold
S267D/H268D (antibody, human IgG1, kappa, HuAM4G7 IgG1 Fc variant) heavy: not shown light: DIVMTQSPATLSLSPGERATLSCRSSKSLQNVNGNTYLYWFQQKPGQSPQLLIYRMSNLNSGVPDRFSGSGSGTEFTLTISSLEPEDFAVYYCMQHLEYPITFGAGTKLEIKRTVAAPSVFIFPPSDEQLKSGTASVVCLLNNFYPREAKVQWKVDNALQSGNSQESVTEQDSKDSTYSLSSTLTLSKADYEKHKVYACEVTHQGLSSPVTKSFNRGEC | – | 14.2 fold
S267E/L328Q (antibody, human IgG1, kappa, HuAM4G7 IgG1 Fc variant) heavy: not shown light: DIVMTQSPATLSLSPGERATLSCRSSKSLQNVNGNTYLYWFQQKPGQSPQLLIYRMSNLNSGVPDRFSGSGSGTEFTLTISSLEPEDFAVYYCMQHLEYPITFGAGTKLEIKRTVAAPSVFIFPPSDEQLKSGTASVVCLLNNFYPREAKVQWKVDNALQSGNSQESVTEQDSKDSTYSLSSTLTLSKADYEKHKVYACEVTHQGLSSPVTKSFNRGEC | – | 12.1 fold
L235N (antibody, human IgG1, kappa, HuAM4G7 IgG1 Fc variant) heavy: not shown light: DIVMTQSPATLSLSPGERATLSCRSSKSLQNVNGNTYLYWFQQKPGQSPQLLIYRMSNLNSGVPDRFSGSGSGTEFTLTISSLEPEDFAVYYCMQHLEYPITFGAGTKLEIKRTVAAPSVFIFPPSDEQLKSGTASVVCLLNNFYPREAKVQWKVDNALQSGNSQESVTEQDSKDSTYSLSSTLTLSKADYEKHKVYACEVTHQGLSSPVTKSFNRGEC | 0.0356 fold | –
S267E/H268D (antibody, human IgG1, kappa, HuAM4G7 IgG1 Fc variant) heavy: not shown light: DIVMTQSPATLSLSPGERATLSCRSSKSLQNVNGNTYLYWFQQKPGQSPQLLIYRMSNLNSGVPDRFSGSGSGTEFTLTISSLEPEDFAVYYCMQHLEYPITFGAGTKLEIKRTVAAPSVFIFPPSDEQLKSGTASVVCLLNNFYPREAKVQWKVDNALQSGNSQESVTEQDSKDSTYSLSSTLTLSKADYEKHKVYACEVTHQGLSSPVTKSFNRGEC | – | 33.3 fold
S267A/L328Y/I332E (antibody, human IgG1, kappa, HuAM4G7 IgG1 Fc variant) heavy: EVQLVESGGGLVKPGGSLKLSCAASGYTFTSYVMHWVRQAPGKGLEWIGYINPYNDGTKYNEKFQGRVTISSDKSISTAYMELSSLRSEDTAMYYCARGTYYYGTRVFDYWGQGTLVTVSSASTKGPSVFPLAPSSKSTSGGTAALGCLVKDYFPEPVTVSWNSGALTSGVHTFPAVLQSSGLYSLSSVVTVPSSSLGTQTYICNVNHKPSNTKVDKKVEPKSCDKTHTCPPCPAPELLGGPSVFLFPPKPKDTLMISRTPEVTCVVVDVAHEDPEVKFNWYVDGVEVHNAKTKPREEQYNSTYRVVSVLTVLHQDWLNGKEYKCKVSNKAYPAPEEKTISKAKGQPREPQVYTLPPSREEMTKNQVSLTCLVKGFYPSDIAVEWESNGQPENNYKTTPPVLDSDGSFFLYSKLTVDKSRWQQGNVFSCSVMHEALHNHYTQKSLSLSPGK light: DIVMTQSPATLSLSPGERATLSCRSSKSLQNVNGNTYLYWFQQKPGQSPQLLIYRMSNLNSGVPDRFSGSGSGTEFTLTISSLEPEDFAVYYCMQHLEYPITFGAGTKLEIKRTVAAPSVFIFPPSDEQLKSGTASVVCLLNNFYPREAKVQWKVDNALQSGNSQESVTEQDSKDSTYSLSSTLTLSKADYEKHKVYACEVTHQGLSSPVTKSFNRGEC | – | 13.5 fold
H268Q (antibody, human IgG1, kappa, HuAM4G7 IgG1 Fc variant) heavy: not shown light: DIVMTQSPATLSLSPGERATLSCRSSKSLQNVNGNTYLYWFQQKPGQSPQLLIYRMSNLNSGVPDRFSGSGSGTEFTLTISSLEPEDFAVYYCMQHLEYPITFGAGTKLEIKRTVAAPSVFIFPPSDEQLKSGTASVVCLLNNFYPREAKVQWKVDNALQSGNSQESVTEQDSKDSTYSLSSTLTLSKADYEKHKVYACEVTHQGLSSPVTKSFNRGEC | 1.58 fold | –
S267A/H268D/L328Y (antibody, human IgG1, kappa, HuAM4G7 IgG1 Fc variant) heavy: EVQLVESGGGLVKPGGSLKLSCAASGYTFTSYVMHWVRQAPGKGLEWIGYINPYNDGTKYNEKFQGRVTISSDKSISTAYMELSSLRSEDTAMYYCARGTYYYGTRVFDYWGQGTLVTVSSASTKGPSVFPLAPSSKSTSGGTAALGCLVKDYFPEPVTVSWNSGALTSGVHTFPAVLQSSGLYSLSSVVTVPSSSLGTQTYICNVNHKPSNTKVDKKVEPKSCDKTHTCPPCPAPELLGGPSVFLFPPKPKDTLMISRTPEVTCVVVDVADEDPEVKFNWYVDGVEVHNAKTKPREEQYNSTYRVVSVLTVLHQDWLNGKEYKCKVSNKAYPAPIEKTISKAKGQPREPQVYTLPPSREEMTKNQVSLTCLVKGFYPSDIAVEWESNGQPENNYKTTPPVLDSDGSFFLYSKLTVDKSRWQQGNVFSCSVMHEALHNHYTQKSLSLSPGK light: DIVMTQSPATLSLSPGERATLSCRSSKSLQNVNGNTYLYWFQQKPGQSPQLLIYRMSNLNSGVPDRFSGSGSGTEFTLTISSLEPEDFAVYYCMQHLEYPITFGAGTKLEIKRTVAAPSVFIFPPSDEQLKSGTASVVCLLNNFYPREAKVQWKVDNALQSGNSQESVTEQDSKDSTYSLSSTLTLSKADYEKHKVYACEVTHQGLSSPVTKSFNRGEC | – | 10.7 fold
S267D/A327D (antibody, human IgG1, kappa, HuAM4G7 IgG1 Fc variant) heavy: not shown light: DIVMTQSPATLSLSPGERATLSCRSSKSLQNVNGNTYLYWFQQKPGQSPQLLIYRMSNLNSGVPDRFSGSGSGTEFTLTISSLEPEDFAVYYCMQHLEYPITFGAGTKLEIKRTVAAPSVFIFPPSDEQLKSGTASVVCLLNNFYPREAKVQWKVDNALQSGNSQESVTEQDSKDSTYSLSSTLTLSKADYEKHKVYACEVTHQGLSSPVTKSFNRGEC | – | 6.89 fold
S267D/A327E (antibody, human IgG1, kappa, HuAM4G7 IgG1 Fc variant) heavy: not shown light: DIVMTQSPATLSLSPGERATLSCRSSKSLQNVNGNTYLYWFQQKPGQSPQLLIYRMSNLNSGVPDRFSGSGSGTEFTLTISSLEPEDFAVYYCMQHLEYPITFGAGTKLEIKRTVAAPSVFIFPPSDEQLKSGTASVVCLLNNFYPREAKVQWKVDNALQSGNSQESVTEQDSKDSTYSLSSTLTLSKADYEKHKVYACEVTHQGLSSPVTKSFNRGEC | – | 12.1 fold
S239D/S267E/I332E (antibody, human IgG1, kappa, HuAM4G7 IgG1 Fc variant) heavy: EVQLVESGGGLVKPGGSLKLSCAASGYTFTSYVMHWVRQAPGKGLEWIGYINPYNDGTKYNEKFQGRVTISSDKSISTAYMELSSLRSEDTAMYYCARGTYYYGTRVFDYWGQGTLVTVSSASTKGPSVFPLAPSSKSTSGGTAALGCLVKDYFPEPVTVSWNSGALTSGVHTFPAVLQSSGLYSLSSVVTVPSSSLGTQTYICNVNHKPSNTKVDKKVEPKSCDKTHTCPPCPAPELLGGPDVFLFPPKPKDTLMISRTPEVTCVVVDVEHEDPEVKFNWYVDGVEVHNAKTKPREEQYNSTYRVVSVLTVLHQDWLNGKEYKCKVSNKALPAPEEKTISKAKGQPREPQVYTLPPSREEMTKNQVSLTCLVKGFYPSDIAVEWESNGQPENNYKTTPPVLDSDGSFFLYSKLTVDKSRWQQGNVFSCSVMHEALHNHYTQKSLSLSPGK light: DIVMTQSPATLSLSPGERATLSCRSSKSLQNVNGNTYLYWFQQKPGQSPQLLIYRMSNLNSGVPDRFSGSGSGTEFTLTISSLEPEDFAVYYCMQHLEYPITFGAGTKLEIKRTVAAPSVFIFPPSDEQLKSGTASVVCLLNNFYPREAKVQWKVDNALQSGNSQESVTEQDSKDSTYSLSSTLTLSKADYEKHKVYACEVTHQGLSSPVTKSFNRGEC | – | 124 fold
